Measurements taken from publication PMC4359074.

Target: mono-nucleosome di-methylated at H3K4 (Xenopus)
Test: native gel or EMSA

TLYCFCQRVSFGEMVACDGPNCKYEWFHYDCVNLKEPPKGTWYCPECKIE (domain or fragment, modifications not checked) [GST-PHD_(Yng2)]
Kd: 10 µM
